# Data as given in article PMC10960864, “Bidirectional ATP-driven transport of cobalamin by the mycobacterial ABC transporter BacA” (Nature Communications, 2024).
# Tested on: Nc1ncnc2c1ncn2[C@@H]1O[C@H](COP(=O)(O)OP(=O)(O)OP(=O)(O)O)[C@@H](O)[C@H]1O
# Assay: purified protein
# Conditions: import direction, Mg-ATP varied, 65 µM cyanocobalamin, pH 7.5, 30 °C, 1 mM DTT
substance,measurement,value
BacAMm (Mycobacterium marinum M),Km,250 µM
